Measurements taken from patent US11202837B2, “Biological materials and uses thereof” (Antikor Biopharma Limited, priority 2014, dated 2021).
In brackets after ≈: the same amount, converted by molar mass. Read-outs that look alike come from different tables or passages of the source. Where a SMILES comes first, the peptide text is derived from it. [ ]: non-standard residue; d: D form. The star is where a group is joined. Dolaproine = CO[C@@H]([C@@H]1CCCN1)[C@@H](C)C(=O)O; Dil = CC[C@H](C)[C@H](NC)[C@@H](CC(=O)O)OC; NMe2Val = CC(C)[C@@H](C(=O)*)N(C)C; NMeV = CN[C@H](C(=O)O)C(C)C

What was measured:
SKBr3 cells = experiment: Cell killing assay (MTS), SKBr3 cells; type: cell-based, human
Method: SKBr3, human breast cancer cell line, high HER2 expression levels, up to 1,000,000 receptors per cell [Lazar G A, et al Proc Natl Acad Sci USA. […] When confluency was 70-80%, cells were washed with PBS (2×10 ml) and incubated with trypsin for 5-7 min. Complete media was added and the cells were resuspended by pipetting. The cells were recovered by centrifugation (2 min, 2000 rpm), the supernatant was discarded, and the cells were resuspended in complete DMEM (5 ml). The cells were then counted using a haemocytometer and diluted accordingly. They were plated at 4500 cells/well (200 μl) using attachment factor and incubated overnight at 37° C., 5% CO2 in a humidified atmosphere. U87 is a non-HER2 expressing glioblastoma cell line and was grown in a similar way, plated at 1000 cells/well.
(§1) […] Cell viability was measured using the Promega Aqueous Cell-titre-96™ aqueous one solution cell proliferation kit according to manufacturer's instructions. Briefly, the media was removed and 100 μl of complete phenol red free media, pre-combined with MTS reagent, was added to the cells (20 μl of reagent per 100 μl of media). The plates were read on an ELISA plate reader at 490 nm after a 2 hr incubation in the dark (5% CO2, 37° C.).
(§2) The data (absorption units) were converted to % cell survival by using the untreated controls as the 100% cell survival and the Triton X-100 controls as the 100% cell death. The average absorption value for the latter was subtracted from all the rest of the data in order to get a suitable baseline. The averages were converted to survival and standard error values were obtained for each n value (as a % cell survival). […] Experiments were repeated at least 3 times for each compound tested and a set or an average of the data was plotted and fitted to obtain a dose response curve.
(§3) The cells were recovered by centrifugation (2 min, 2000 rpm), the supernatant was discarded, and the cells were resuspended in complete McCoy's 5A (5 ml). The cells were then counted using a haemocytometer and diluted accordingly. They were plated at 5000 cells/well (200 μl) using attachment factor and incubated overnight at 37° C., 5% CO2 in a humidified atmosphere. U87 is a non-HER2 expressing glioblastoma cell line [Zitron I M et al (2013) BMC Cancer 13:83] and was grown in a similar way, plated at 1000 cells/well (using DMEM media). BT474 is a HER2 expressing breast cancer cell line [Brockhoff G et al (2007) Cell Prolif 40:488-507] and was grown in a similar way, plated at 7500 cells/well (using RPMI media). NCI-N87 is a HER2 expressing gastric cancer cell line [Yamashita-Kashima Y et al (2013) Oncol. Rep 30:1087-93] and was grown in a similar way, plated at 7500 cells/well (using RPMI media).
as §1, with “kit (MTS reagent)” for “kit”
The data (absorption units) were converted to % cell survival by using the untreated controls as the 100% cell survival and the Triton X-100 controls as the 100% cell death. The average absorption value for the latter was subtracted from all the rest of the data in order to get a suitable baseline. The averages were converted to survival and standard error values were obtained for each n value (as a % cell survival).

BT474 cells = experiment: Cell killing assay (MTS), BT474 cells; type: cell-based, human
Method: as §3
The cells were exposed to the various ADCs diluted in complete media for 96 hours at 37° C., 5% CO2 in a humidified atmosphere. Cell viability was measured using the Promega Aqueous Cell-titre-96™ aqueous one solution cell proliferation kit (MTS reagent) according to manufacturer's instructions. Briefly, the media was removed and 100 μl of complete phenol red free media, pre-combined with MTS reagent, was added to the cells (20 μl of reagent per 100 μl of media). The plates were read on an ELISA plate reader at 490 nm after a 2 hr incubation in the dark (5% CO2, 37° C.).
as §2, with “dose-response” for “dose response”

HER2 = HER2 (Homo sapiens, UniProt P04626); experiment: Biacore SPR binding to immobilised HER2; details: immobilised HER2
Method: The binding affinity against immobilised HER2 target antigen was determined by Biacore SPR compared to the unmodified scFv on a Biacore T200. A standard amine-coupling method was used to prepare all Biacore surfaces (CM5 or CM3), as follows. Flow cells were activated individually by injecting a freshly mixed solution of 0.2M EDC in 0.05 M NHS at 30 μl/min. […] Excess NHS ester was deactivated using a 1 M ethanolamine solution. To measure the kinetics of the antibody and conjugate on the HER2 chip, a […] serial dilution (typically at 5, 2.5, 1.25, 0.6 μg/ml or lower for free antibody and 20, 10, 5, 2.5 μg/ml for the conjugates), was injected for 160 s at 30 μl/min, allowing a 900-s dissociation phase. The dissociation time was extended to 3600 s for the highest concentration. Surfaces were regenerated with 45 s injection of MgCl2 8M.
To evaluate binding ability, manual runs were performed at 30 μl/min with a 60 s injection of the desired compound followed by 60 s waiting time and a 45 s of regeneration at 10 μl/min using MgCl2 8M. All data was analysed using the software, BIAEvaluation.

[1] = SKBr3 Cells (HER2 +++), 4 hours incubation, Table 52
[2] = SKBr3 Cells (HER2 +++), 4 hours incubation, Table 52, read-out: IC50
[3] = SKBr3 Cells (HER2 +++), 96 hours incubation, Table 52
[4] = SKBr3 Cells (HER2 +++), 96 hours incubation, Table 52, read-out: IC50
[5] = 96 hours exposure, read-out: IC50 nM SKBr3 Cells (HER2+++)

## CC[C@H](C)[C@@H]([C@@H](CC(=O)N1CCC[C@H]1[C@H](OC)[C@@H](C)C(=O)N[C@@H](Cc1ccccc1)C(=O)O)OC)N(C)C(=O)[C@@H](NC(=O)[C@H](C(C)C)N(C)C)C(C)C [Free Auristatin] (NMe2Val-V[Dil][Dolaproine]F-OH)
SKBr3 cells; [1]
  IC50 μg/ml: 0.00181 µg/mL (≈ 2.43 nM)
SKBr3 cells; [2]
  IC50: > 100 nM
SKBr3 cells; [3]
  IC50 μg/ml: 0.00081 µg/mL (≈ 1.09 nM)
SKBr3 cells; [4]
  IC50: > 10 nM

## CC[C@H](C)[C@@H]([C@@H](CC(=O)N1CCC[C@H]1[C@H](OC)[C@@H](C)C(=O)N[C@@H](Cc1ccccc1)C(=O)O)OC)N(C)C(=O)[C@@H](NC(=O)[C@@H](NC)C(C)C)C(C)C [Free drug MMAF] (H-[NMeV]V[Dil][Dolaproine]F-OH)
BT474 cells; Homo sapiens, BT-474, 96 h, read-out: IC50 pM
  IC50: > 10000 pM

B1: scFv (TCT1067)-MMAF-C5 DAR 5.2 (conjugate)
scFv: SGSGGSGQVQLVQSGAEVKKPGESLKISCKGSGYSFTSYWIAWVRQMPGKGLEYMGLIYPGDSDTKYSPSFQGQVTISVDKSVSTAYLQWSSLKPSDSAVYFCARHDVGYCTDRTCAAWPEWLGVWGQGTLVTVSSGGGGSGGGGSGGGGSQSVLTQPPSVSAAPGQKVTISCSGSSSNIGNNYVSWYQQLPGTAPKLLIYGHTNRPAGVPDRFSGSKSGTSASLAISGFRSEDEADYYCASWDYTLSGWVFGGGTKLTVLMASMTGGQQMG
HER2
  association rate: 1.8e+06 M⁻¹ s⁻¹
  dissociation rate: 3.4e-05 s⁻¹

B2: scFv (TCT1067)-Auristatin-F-C5 DAR 5.65 (conjugate)
scFv: SGSGGSGQVQLVQSGAEVKKPGESLKISCKGSGYSFTSYWIAWVRQMPGKGLEYMGLIYPGDSDTKYSPSFQGQVTISVDKSVSTAYLQWSSLKPSDSAVYFCARHDVGYCTDRTCAAWPEWLGVWGQGTLVTVSSGGGGSGGGGSGGGGSQSVLTQPPSVSAAPGQKVTISCSGSSSNIGNNYVSWYQQLPGTAPKLLIYGHTNRPAGVPDRFSGSKSGTSASLAISGFRSEDEADYYCASWDYTLSGWVFGGGTKLTVLMASMTGGQQMG
HER2
  association rate: 336000 M⁻¹ s⁻¹
  dissociation rate: 1.35e-05 s⁻¹

B3: scFv (TCT1067)-Auristatin-F-C5 DAR 3.3 (conjugate)
scFv: SGSGGSGQVQLVQSGAEVKKPGESLKISCKGSGYSFTSYWIAWVRQMPGKGLEYMGLIYPGDSDTKYSPSFQGQVTISVDKSVSTAYLQWSSLKPSDSAVYFCARHDVGYCTDRTCAAWPEWLGVWGQGTLVTVSSGGGGSGGGGSGGGGSQSVLTQPPSVSAAPGQKVTISCSGSSSNIGNNYVSWYQQLPGTAPKLLIYGHTNRPAGVPDRFSGSKSGTSASLAISGFRSEDEADYYCASWDYTLSGWVFGGGTKLTVLMASMTGGQQMG
HER2
  association rate: 556000 M⁻¹ s⁻¹
  dissociation rate: 1.82e-05 s⁻¹

B4: scFv (TCT1067)-P5C5 DAR 10.6 (conjugate)
scFv: SGSGGSGQVQLVQSGAEVKKPGESLKISCKGSGYSFTSYWIAWVRQMPGKGLEYMGLIYPGDSDTKYSPSFQGQVTISVDKSVSTAYLQWSSLKPSDSAVYFCARHDVGYCTDRTCAAWPEWLGVWGQGTLVTVSSGGGGSGGGGSGGGGSQSVLTQPPSVSAAPGQKVTISCSGSSSNIGNNYVSWYQQLPGTAPKLLIYGHTNRPAGVPDRFSGSKSGTSASLAISGFRSEDEADYYCASWDYTLSGWVFGGGTKLTVLMASMTGGQQMG
BT474 cells; BT474 Cells (HER2++), 96 hours, Table 48
  IC50 μg/ml: 0.5 µg/mL
BT474 cells; BT474 Cells (HER2++), 96 hours, Table 48, read-out: IC50
  IC50: 17800 pM

B5: scFv (TCT1067)-Auristatin-F-C5 DAR 11.9 (conjugate)
scFv: SGSGGSGQVQLVQSGAEVKKPGESLKISCKGSGYSFTSYWIAWVRQMPGKGLEYMGLIYPGDSDTKYSPSFQGQVTISVDKSVSTAYLQWSSLKPSDSAVYFCARHDVGYCTDRTCAAWPEWLGVWGQGTLVTVSSGGGGSGGGGSGGGGSQSVLTQPPSVSAAPGQKVTISCSGSSSNIGNNYVSWYQQLPGTAPKLLIYGHTNRPAGVPDRFSGSKSGTSASLAISGFRSEDEADYYCASWDYTLSGWVFGGGTKLTVLMASMTGGQQMG
HER2
  association rate: 21700 M⁻¹ s⁻¹
  dissociation rate: 1.76e-05 s⁻¹

B6: ScFv (TCT1067)-AF-C5 DAR 5.3 (conjugate)
scFv: SGSGGSGQVQLVQSGAEVKKPGESLKISCKGSGYSFTSYWIAWVRQMPGKGLEYMGLIYPGDSDTKYSPSFQGQVTISVDKSVSTAYLQWSSLKPSDSAVYFCARHDVGYCTDRTCAAWPEWLGVWGQGTLVTVSSGGGGSGGGGSGGGGSQSVLTQPPSVSAAPGQKVTISCSGSSSNIGNNYVSWYQQLPGTAPKLLIYGHTNRPAGVPDRFSGSKSGTSASLAISGFRSEDEADYYCASWDYTLSGWVFGGGTKLTVLMASMTGGQQMG
SKBr3 cells; [1]
  IC50 μg/ml: 0.00181 µg/mL
SKBr3 cells; [2]
  IC50: 0.0644 nM
SKBr3 cells; [3]
  IC50 μg/ml: 0.00081 µg/mL
SKBr3 cells; [4]
  IC50: 0.0288 nM

B7: scFv (TCT)-P5C5, DAR = 5 (conjugate)
scFv: SGSGGSGQVQLVQSGAEVKKPGESLKISCKGSGYSFTSYWIAWVRQMPGKGLEYMGLIYPGDSDTKYSPSFQGQVTISVDKSVSTAYLQWSSLKPSDSAVYFCARHDVGYCSSSNCAAWPEYFQHWGQGTLVTVSSGGGGSGGGGSGGGGSQSVLTQPPSVSAAPGQKVTISCSGSSSNIGNNYVSWYQQLPGTAPKLLIYGHTNRPAGVPDRFSGSKSGTSASLAISGFRSEDEADYYCAAWDDSLSGWVFGGGTKLTVLMASMTGGQQMG
SKBr3 cells; 96 hours exposure
  IC50 μg/ml SKBr3 Cells (HER2+++): 1.33 ± 0.1 µg/mL
SKBr3 cells; [5]
  IC50: 47.5 ± 0.36 nM

B8: scFv (TCT)-P5C5, DAR = 8 (conjugate)
scFv: SGSGGSGQVQLVQSGAEVKKPGESLKISCKGSGYSFTSYWIAWVRQMPGKGLEYMGLIYPGDSDTKYSPSFQGQVTISVDKSVSTAYLQWSSLKPSDSAVYFCARHDVGYCSSSNCAAWPEYFQHWGQGTLVTVSSGGGGSGGGGSGGGGSQSVLTQPPSVSAAPGQKVTISCSGSSSNIGNNYVSWYQQLPGTAPKLLIYGHTNRPAGVPDRFSGSKSGTSASLAISGFRSEDEADYYCAAWDDSLSGWVFGGGTKLTVLMASMTGGQQMG
SKBr3 cells; 96 hours exposure
  IC50 μg/ml SKBr3 Cells (HER2+++): 0.8 ± 0.1 µg/mL
SKBr3 cells; [5]
  IC50: 28 ± 0.36 nM
